According to paper PMC9832388:
Where two headings read alike, the source gives them in different places. One block for each substance: values may come before it.

Tests used:
[1] = molecular target: C3b (UniProt P01024); experiment: SPR; BIAcore S200; C3b (800-1000 RU) on a CM5 chip; FH1-4 variants flowed at 20 to 0.3125 µM, 90 s at 30 µL/min; steady state fit, estimated KD; done once in HBST and once in PBST (PBST shown)
[2] = molecular target: C3b (UniProt P01024); experiment: as above; remark: listed apart in the source
[3] = molecular target: C3b (UniProt P01024)
[4] = molecular target: C3b:FH complex (C3b with WT FH CCP 1-4) (UniProt P01024); experiment: SPR; TMC building, FI variants: FI variants on the inactive (S525A) backbone (125-15.625 nM; 62.5 nM shown) co-injected with FH1-4 at constant concentration (125 nM in the methods, 118 nM in the legend) onto thioester-coupled C3b (1000 RU); PBST + Mg2+
Sequence of C3b:FH complex (C3b with WT FH CCP 1-4) (P01024 23-667, chain 1 of 3): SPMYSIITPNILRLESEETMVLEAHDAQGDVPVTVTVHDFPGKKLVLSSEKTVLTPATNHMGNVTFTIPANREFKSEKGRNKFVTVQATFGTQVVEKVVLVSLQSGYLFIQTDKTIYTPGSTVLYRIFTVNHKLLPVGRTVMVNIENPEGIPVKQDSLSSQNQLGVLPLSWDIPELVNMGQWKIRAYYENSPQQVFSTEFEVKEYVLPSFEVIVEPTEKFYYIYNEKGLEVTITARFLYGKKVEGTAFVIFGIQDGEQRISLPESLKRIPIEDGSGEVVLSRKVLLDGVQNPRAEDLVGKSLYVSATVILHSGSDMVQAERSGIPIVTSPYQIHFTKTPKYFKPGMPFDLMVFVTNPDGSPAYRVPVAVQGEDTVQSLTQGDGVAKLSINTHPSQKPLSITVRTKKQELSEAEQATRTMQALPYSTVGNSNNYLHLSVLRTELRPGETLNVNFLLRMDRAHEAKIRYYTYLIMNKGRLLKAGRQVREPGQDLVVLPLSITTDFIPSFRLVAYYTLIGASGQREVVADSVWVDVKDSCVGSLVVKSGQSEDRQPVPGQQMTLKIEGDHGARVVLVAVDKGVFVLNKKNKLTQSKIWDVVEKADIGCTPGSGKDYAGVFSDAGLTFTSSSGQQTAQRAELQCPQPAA
Sequence of C3b:FH complex (C3b with WT FH CCP 1-4) (P01024 749-1663, chain 2 of 3): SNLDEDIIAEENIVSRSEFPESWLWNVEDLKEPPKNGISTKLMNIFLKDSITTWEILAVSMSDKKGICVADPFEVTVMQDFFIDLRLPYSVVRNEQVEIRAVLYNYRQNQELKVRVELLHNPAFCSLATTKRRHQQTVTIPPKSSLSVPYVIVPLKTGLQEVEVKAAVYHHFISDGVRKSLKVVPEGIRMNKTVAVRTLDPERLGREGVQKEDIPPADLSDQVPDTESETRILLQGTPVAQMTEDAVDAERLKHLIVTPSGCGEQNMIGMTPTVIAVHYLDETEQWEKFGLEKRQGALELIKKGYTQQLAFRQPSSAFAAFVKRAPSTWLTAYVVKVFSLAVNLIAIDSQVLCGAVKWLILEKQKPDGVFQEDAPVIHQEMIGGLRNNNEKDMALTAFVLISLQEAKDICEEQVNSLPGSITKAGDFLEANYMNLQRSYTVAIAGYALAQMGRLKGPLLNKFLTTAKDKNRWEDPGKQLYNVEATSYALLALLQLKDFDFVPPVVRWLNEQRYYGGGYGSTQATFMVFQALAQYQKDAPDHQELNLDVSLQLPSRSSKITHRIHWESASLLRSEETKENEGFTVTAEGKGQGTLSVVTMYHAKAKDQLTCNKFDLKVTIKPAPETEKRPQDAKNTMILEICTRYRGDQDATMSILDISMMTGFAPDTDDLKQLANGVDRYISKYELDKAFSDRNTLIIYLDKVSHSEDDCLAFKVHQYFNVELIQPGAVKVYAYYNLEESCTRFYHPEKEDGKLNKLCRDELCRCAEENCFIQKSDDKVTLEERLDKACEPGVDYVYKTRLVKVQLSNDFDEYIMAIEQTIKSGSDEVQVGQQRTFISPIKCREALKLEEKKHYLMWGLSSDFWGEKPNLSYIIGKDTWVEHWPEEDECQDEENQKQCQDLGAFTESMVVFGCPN
Sequence of C3b:FH complex (C3b with WT FH CCP 1-4) (P08603 19-1231, chain 3 of 3, further chain): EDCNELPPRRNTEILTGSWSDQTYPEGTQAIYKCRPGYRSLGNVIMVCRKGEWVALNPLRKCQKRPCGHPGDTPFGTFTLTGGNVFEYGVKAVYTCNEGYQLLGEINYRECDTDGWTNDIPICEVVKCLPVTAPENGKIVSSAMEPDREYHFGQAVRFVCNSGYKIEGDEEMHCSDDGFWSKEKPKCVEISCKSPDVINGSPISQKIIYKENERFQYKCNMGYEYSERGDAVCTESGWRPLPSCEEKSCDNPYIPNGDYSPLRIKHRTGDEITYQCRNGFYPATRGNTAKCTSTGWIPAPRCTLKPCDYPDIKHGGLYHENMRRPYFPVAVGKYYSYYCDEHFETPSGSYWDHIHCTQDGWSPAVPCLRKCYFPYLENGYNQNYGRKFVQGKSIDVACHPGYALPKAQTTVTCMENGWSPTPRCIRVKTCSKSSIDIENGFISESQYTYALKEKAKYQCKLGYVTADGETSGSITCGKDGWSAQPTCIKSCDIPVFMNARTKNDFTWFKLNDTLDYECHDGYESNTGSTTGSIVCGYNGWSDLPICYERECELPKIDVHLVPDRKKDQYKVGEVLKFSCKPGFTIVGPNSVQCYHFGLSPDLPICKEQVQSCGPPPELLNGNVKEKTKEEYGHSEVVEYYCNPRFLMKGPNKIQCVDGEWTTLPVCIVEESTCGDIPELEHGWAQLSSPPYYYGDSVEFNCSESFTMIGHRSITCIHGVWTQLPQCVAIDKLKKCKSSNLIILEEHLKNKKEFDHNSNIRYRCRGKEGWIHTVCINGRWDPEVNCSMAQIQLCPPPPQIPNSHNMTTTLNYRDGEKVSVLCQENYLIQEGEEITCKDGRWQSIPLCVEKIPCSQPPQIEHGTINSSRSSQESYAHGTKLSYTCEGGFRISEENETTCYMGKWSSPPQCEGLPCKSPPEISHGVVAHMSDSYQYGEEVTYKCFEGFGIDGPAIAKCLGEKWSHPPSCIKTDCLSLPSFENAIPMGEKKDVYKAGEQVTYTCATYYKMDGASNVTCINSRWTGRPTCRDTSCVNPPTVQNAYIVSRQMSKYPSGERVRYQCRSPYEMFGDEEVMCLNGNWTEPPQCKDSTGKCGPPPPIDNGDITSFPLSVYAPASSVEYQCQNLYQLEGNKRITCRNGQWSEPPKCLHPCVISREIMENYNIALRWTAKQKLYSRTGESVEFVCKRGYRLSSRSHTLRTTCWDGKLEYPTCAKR

[5] = molecular target: C3b:FH complex (C3b with WT FH CCP 1-4) (UniProt P01024)
[6] = molecular target: C3b with FH CCP 1-4 R83S (UniProt P01024); experiment: SPR; TMC building, FH variants: FH1-4 (118-14.75 nM) co-injected with 118 nM inactive (S525A) FI onto C3b (1000 RU, thiol/thioester coupled) CM5 chip; PBST + 1 mM MgCl2, 25°C, 2 min at 30 µl/min
Sequence of C3b with FH CCP 1-4 R83S (P01024 23-667, chain 1 of 3): as the sequence (P01024 23-667, chain 1 of 3) above
Sequence of C3b with FH CCP 1-4 R83S (P01024 749-1663, chain 2 of 3): as the sequence (P01024 749-1663, chain 2 of 3) above
Sequence of C3b with FH CCP 1-4 R83S (P08603 19-1231 R83S, chain 3 of 3, further chain): as the sequence (P08603 19-1231, chain 3 of 3, further chain) above, with R65S counted along it

[7] = molecular target: C3b with FH CCP 1-4 T91S (UniProt P01024); experiment: as above
Sequence of C3b with FH CCP 1-4 T91S (P01024 23-667, chain 1 of 3): as the sequence (P01024 23-667, chain 1 of 3) above
Sequence of C3b with FH CCP 1-4 T91S (P01024 749-1663, chain 2 of 3): as the sequence (P01024 749-1663, chain 2 of 3) above
Sequence of C3b with FH CCP 1-4 T91S (P08603 19-1231 T91S, chain 3 of 3, further chain): as the sequence (P08603 19-1231, chain 3 of 3, further chain) above, with T73S counted along it

[8] = molecular target: C3b with FH CCP 1-4 R166W (UniProt P01024); experiment: as above
Sequence of C3b with FH CCP 1-4 R166W (P01024 23-667, chain 1 of 3): as the sequence (P01024 23-667, chain 1 of 3) above
Sequence of C3b with FH CCP 1-4 R166W (P01024 749-1663, chain 2 of 3): as the sequence (P01024 749-1663, chain 2 of 3) above
Sequence of C3b with FH CCP 1-4 R166W (P08603 19-1231 R166W, chain 3 of 3, further chain): as the sequence (P08603 19-1231, chain 3 of 3, further chain) above, with R148W counted along it

[9] = molecular target: C3b:FH complex (C3b with WT FH CCP 1-4) (UniProt P01024); experiment: as above
[10] = molecular target: C3b with FH CCP 1-4 R232Q (UniProt P01024); experiment: as above
Sequence of C3b with FH CCP 1-4 R232Q (P01024 23-667, chain 1 of 3): as the sequence (P01024 23-667, chain 1 of 3) above
Sequence of C3b with FH CCP 1-4 R232Q (P01024 749-1663, chain 2 of 3): as the sequence (P01024 749-1663, chain 2 of 3) above
Sequence of C3b with FH CCP 1-4 R232Q (P08603 19-1231 R232Q, chain 3 of 3, further chain): as the sequence (P08603 19-1231, chain 3 of 3, further chain) above, with R214Q counted along it

[11] = molecular target: C3b with FH CCP 1-4 P26S (UniProt P01024); experiment: as above
Sequence of C3b with FH CCP 1-4 P26S (P01024 23-667, chain 1 of 3): as the sequence (P01024 23-667, chain 1 of 3) above
Sequence of C3b with FH CCP 1-4 P26S (P01024 749-1663, chain 2 of 3): as the sequence (P01024 749-1663, chain 2 of 3) above
Sequence of C3b with FH CCP 1-4 P26S (P08603 19-1231 P26S, chain 3 of 3, further chain): as the sequence (P08603 19-1231, chain 3 of 3, further chain) above, with P8S counted along it

[12] = molecular target: C3b:FH complex (C3b with WT FH CCP 1-4) (UniProt P01024); remark: listed apart in the source

Sequence of C3b (P01024 23-667, chain 1 of 2): as the sequence (P01024 23-667, chain 1 of 3) above
Sequence of C3b (P01024 749-1663, chain 2 of 2): as the sequence (P01024 749-1663, chain 2 of 3) above

Substance: FH CCP 1-4 R166W (from UniProt P08603 19-1231) (domain or fragment)
Kd [2]: 16 to 20 µM | Kd [1]: 16.7 µM

Substance: FH CCP 1-4 T91S (from UniProt P08603 19-1231) (domain or fragment)
Kd [1]: 9.4 µM

Substance: FI K441R/S525A (from UniProt P05156 19-335; P05156 340-583) (enzyme)
RU of the TMC (62.5 nM FI variant with FH1-4) [4]: 91.2 RU | percent of the response of inactive WT FI [4]: 94%

Substance: FI P553S/S525A (from UniProt P05156 19-335; P05156 340-583) (enzyme)
RU of the TMC (62.5 nM FI variant with FH1-4) [4]: 62.9 RU | percent of the response of inactive WT FI [4]: 65%

Second part, the substance after the results:

Kd [1]: 11.5 µM
Substance: FH CCP 1-4 P26S (from UniProt P08603 19-1231) (domain or fragment)

fluid phase cofactor activity with FI and C3b: reduction in C3b α’ chain degradation (% reduced compared to WT) [3]: 41
Substance: FH CCP 1-4 R232Q (from UniProt P08603 19-1231) (domain or fragment)

Kd [1]: 10 µM
Substance: FH CCP 1-4 WT (from UniProt P08603 19-1231) (domain or fragment)

RU of the TMC (62.5 nM FI variant with FH1-4) [4]: 74.6 RU | percent of the response of inactive WT FI [4]: 77%
Substance: FI R406H/S525A (from UniProt P05156 19-335; P05156 340-583) (enzyme)

inhibition of the activity of WT FI in a fluid phase CA assay with increasing H380R FI (~20% at equimolar, 35% at 2-fold molar) [5]: 35%
Substance: H380R FI (from UniProt P05156 19-335; P05156 340-583) (enzyme)

peak RU of the TMC (59 nM FH1-4 with 118 nM S525A FI) [6]: 5 RU | peak RU of the TMC (59 nM FH1-4 with 118 nM S525A FI) [7]: 30 RU | peak RU of the TMC (59 nM FH1-4 with 118 nM S525A FI) [8]: 7 RU | RU of the TMC (118 nM FH1-4 with 118 nM inactive FI) [9]: 60 RU | peak RU of the TMC (59 nM FH1-4 with 118 nM S525A FI) [9]: 40 RU | peak RU of the TMC (59 nM FH1-4 with 118 nM S525A FI) [10]: 6 RU | peak RU of the TMC (59 nM FH1-4 with 118 nM S525A FI) [11]: 29 RU | inhibition of C3b cleavage by WT FI in a fluid phase CA assay with increasing S525A FI (15% at equimolar, 20% at 2-fold molar) [12]: 20%
Substance: inactive FI (S525A FI) (from UniProt P05156 19-335; P05156 340-583) (enzyme)
